{"source": "paper PMC10941800", "origin": "cited, not measured here", "conditions_in_all_cases": "cited from earlier work", "key": {"[1]": {"molecular_target": "measles virus hemagglutinin (Measles morbillivirus) (UniProt P08362)", "sequence (P08362 59-617)": "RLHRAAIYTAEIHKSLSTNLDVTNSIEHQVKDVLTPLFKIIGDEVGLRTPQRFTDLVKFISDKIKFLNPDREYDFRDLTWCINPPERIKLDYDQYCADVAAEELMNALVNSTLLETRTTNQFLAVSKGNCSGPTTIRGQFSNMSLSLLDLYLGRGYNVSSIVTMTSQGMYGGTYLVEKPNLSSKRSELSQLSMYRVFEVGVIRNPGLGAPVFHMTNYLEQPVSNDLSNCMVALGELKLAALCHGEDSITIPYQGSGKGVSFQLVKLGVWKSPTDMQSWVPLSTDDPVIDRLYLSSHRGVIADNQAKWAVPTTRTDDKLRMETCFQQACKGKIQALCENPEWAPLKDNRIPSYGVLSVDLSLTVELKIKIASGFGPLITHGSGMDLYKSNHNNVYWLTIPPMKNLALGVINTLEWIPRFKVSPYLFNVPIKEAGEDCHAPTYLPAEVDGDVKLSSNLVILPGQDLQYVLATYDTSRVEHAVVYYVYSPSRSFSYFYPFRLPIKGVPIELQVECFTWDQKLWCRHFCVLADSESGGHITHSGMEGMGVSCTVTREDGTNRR"}, "[2]": {"molecular_target": "measles virus hemagglutinin (Measles morbillivirus) (UniProt P08362)", "remark": "listed apart in the source"}, "[3]": {"molecular_target": "measles virus hemagglutinin (Measles morbillivirus) (UniProt P08362)", "remark": "listed apart in the source"}}, "note": "Where two headings read alike, the source gives them in different places.", "data": [{"substance": "SLAM (from UniProt Q13291)", "values": [{"measurement": "Kd", "setting": "[1]", "value": 170, "unit": "nM"}]}, {"substance": "CD46 (from UniProt P15529)", "values": [{"measurement": "Kd", "setting": "[2]", "value": 200, "unit": "nM"}]}, {"substance": "Nectin-4 (from UniProt Q96NY8)", "values": [{"measurement": "Kd", "setting": "[3]", "value": 670, "unit": "nM"}]}]}
